Ends that are not written are not given here.

The values that follow come from patent publication US11767344B2, “Pharmaceutically acceptable salts of polypeptides and methods of inhibiting the interaction between psd-95 and n-methyl-d-aspartic acid receptor (nmdar)” (BIOCELLS (BEIJING) BIOTECH CO., LTD., priority 2017, dated 2023).

In data set [1] the test system is rat MCAO model. Description: Therapeutic effect on rat MCAO model (cerebral infarction volume, TTC staining). Type of data set: in vivo.
A short description of data set [2]: Stability analysis of P5 salt powders (HPLC area normalization). Conditions: powder, 10 days.
Procedure: The three P5 salts in Example 3 in their powder form were subjected to treatments with irradiation (3000 Lx)+ultraviolet (UV), high temperature (60° C.), and high humidity (75% RH) for 10 days. After the treatments, the powders were dissolved in water to prepare a solution at a concentration of 2 mg/ml. 10 μl of each solution was accurately measured and injected into a liquid chromatograph, and the chromatograms were recorded. Relevant substances were calculated according to the area normalization method to analyze the content and the number of impurity species.
(§1) Mobile phase: A 0.065% TFA-water; B 0.05% TFA-ACN
(§2) Detection wavelength λ=220 nm; flow rate V=1.0 ml/min; temperature T=36° C.
Injection volume Inj=10 ul
(§3) Gradient conditions: 0-30 min, B %=5-65%
A short description of data set [3]: Stability analysis of P5 salt solutions (HPLC area normalization). Conditions: aqueous solution 2 mg/ml, irradiation (3000 Lx), 10 days.
Procedure: The solutions were subjected to treatments with irradiation (3000 Lx) and high temperature (60° C.) for 10 days. After the treatments, 10 μl of each solution was accurately measured and injected into a liquid chromatograph, and the chromatograms were recorded. The relevant substances were calculated according to the area normalization method to analyze the content and the number of impurity species.
high performance liquid chromatograph (Agilent, 1260 EZChrom); chromatographic column (Agilent, ZORBAX 300SB-C18 (4.6*250 mm, 5 μm) SN: USHH008416); analytical balance (Sartoris, BT25S); filter membrane (Millipore, 0.45 μm PTFE); acetonitrile (MREDA); water (Aqua); TFA (MREDA); and comprehensive drug stability test box (three-box type) (Shanghai Zuocheng Experimental Instrument Co. Ltd, item no. SHH-3SDT).
as §1, §2
Injection volume Inj=10 μl
as §3
The mark [4] stands for this setting: irradiation (3000 Lx) + ultraviolet.

Turning to “P5-TFA: trifluoroacetate salt of chimeric peptide P5 (YGRKKRRQRRRYEKLLDTEI) (also: trifluoroacetate salt)”, in data set [1] (10 mg/kg tail vein injection 1 hour after ischemia, 24 h after administration, p<0.01), the “cerebral infarction volume as compared with the model group” value was “significantly reduced”. Also, the “effect in reducing cerebral infarction volume as compared with positive control drug NBP” value in data set [1] (10 mg/kg vs NBP 2.5 mg/kg, tail vein injection 1 hour after ischemia, p<0.05) is given as “significantly superior”. Moreover, the “Number of impurity species” value stood at 1 in data set [2] (high humidity (75% RH)), 3 in data set [2] (high temperature (60° C.)), 6 in data set [2] (setting [4]) and 10 in data set [3]. Further, the “Percentage of main peak area” value in data set [2] (high humidity (75% RH)) is recorded as 99.73%; in data set [2] (high temperature (60° C.)) it was 99.56%; in data set [2] (setting [4]) it was 98.34%; in data set [3], 97.28%.
